Experimental data as given in patent US20150140001A1 (Scripps Research, published 2015).

Legend:
[1] = molecular target: T1, recombinant mouse clec14a CTLD Fc fusion protein (mCTLD-Fc) (mouse; human, UniProt Q8VCP9 31-172); test: ELISA, coated mCTLD-Fc (25 nM), 67 nM IgG
T1 construct: also called mouse CTLD-Fc; not shown: hinge and CH2-CH3 domain of human IgG1, encoded 3' of the cloning site of the modified pCEP4 vector
T1 sequence: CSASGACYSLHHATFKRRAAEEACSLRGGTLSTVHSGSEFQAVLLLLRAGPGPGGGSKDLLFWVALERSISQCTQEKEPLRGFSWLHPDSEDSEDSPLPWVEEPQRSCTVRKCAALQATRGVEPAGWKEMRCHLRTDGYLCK
Experimental: (§1) 25 nM recombinant hCTLD-Fc, mCTLD-Fc, or Fc fragment of IgG1 in PBS was added to the 96-wells of a microtiter plate. After incubation overnight at 37° C., plates were washed three times with PBS containing 0.05% (v/v) Tween 20 (PBST), and incubated with 3% (w/v) BSA in PBST for 1 hr at 37° C. Plates were then incubated with 67 nM clec14a-CTLD IgG in PBST containing 3% (w/v) BSA for 3 hr at 37° C. Plates were washed twice with PBST and incubated with horseradish […] (HRP)-conjugated anti-human lambda light chain antibody (Bethyl Laboratories, Montgomery, Tex., USA) diluted 1:1000) in PBST containing 3% (w/v) BSA, for 1 hr at 37° C.

[2] = molecular target: T2, fusion protein comprising an amino acid fragment from 1st amino acid to 42nd amino acid in hCTLD (human, UniProt Q86T13 31-72); test: epitope mapping ELISA, coated fragment-Fc 10 µg/ml, IgG 10 µg/ml
T2 construct: also called N-terminal fragment of hCTLD-Fc (1-42); not shown: Fc
T2 chain: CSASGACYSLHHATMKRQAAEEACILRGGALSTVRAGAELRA
Experimental: Each of 10 μg/ml hCTLD-Fc, Fc, or N-terminal or C-terminal fragments of hCTLD-Fc in PBS was added to 96-well plates. Plates were incubated overnight at 37° C., washed three times with PBS containing 0.05% (v/v) Tween 20 (PBST), and incubated with 3% (w/v) BSA in PBST for 1 hr at 37° C. Plates were incubated with 10 μg/ml clec14a-CTLD IgG in PBST containing 3% (w/v) BSA for 2 hr at 37° C. Following two times washings with PBST, horseradish […] (HRP)-conjugated anti-human lambda light chain antibody (1:1000; Bethyl Laboratories, TX, USA) in PBST containing 3% (w/v) BSA was incubated for 1 hr at 37° C.
For fine mapping of epitope, specificity of clec14a-CTLD IgGs to Clec14awtCTLD and the fragments of hCTLD-Fc (FIG. 10a) were tested by ELISA.

[3] = molecular target: T1, recombinant mouse clec14a CTLD Fc …; test: phage enzyme immunoassay (phage ELISA) on mCTLD-Fc
Experimental: (§2) A human synthetic scFv antibody library was precleared of Fc binders and screened by alternative biopanning with recombinant hCTLD-Fc or mCTLD-Fc. b-d. Ninety-six phage clones (1-96) displaying scFv were randomly selected and the supernatants were analyzed by phage ELISA. Reactivity of the selected scFv clones to human and mouse CTLDs was assayed by measuring absorbance at 450 nm. Arrows indicate scFv clones reactive to hCTLD-Fc (▪, black) and mCTLD-Fc (▪, grey), and not reactive to Fc (□). BSA ( ) served as a background control.
(§3) Three rounds of biopanning were carried out with immunotubes (Immuno™ tube maxisorp, Nunc, Rochester, N.Y., USA) or magnetic beads (Dynabeads M-270 epoxy, Invitrogen) coated with 4 μg recombinant human (hCTLD-Fc) or mouse (mCTLD-Fc) fusion protein to select clones with cross-species reactivity, as described previously (Barbas C F. Phage display: a laboratory manual. Cold Spring Harbor, N.Y.: Cold Spring Harbor Laboratory Press; 2001; Vestweber D. Lymphocyte trafficking through blood and lymphatic vessels: more than just selectins, chemokines and integrins. European Journal of Immunology. 2003; 33(5):1361-4). Ninety-six phage clones were randomly selected from colonies grown on output plates and tested for reactivity to human and mouse CTLDs by phage enzyme immunoassay. DNA of the final scFv clones was sequenced and classified as four scFv clones identified having different complementarity determining region sequences.

[4] = molecular target: T3, recombinant human clec14a CTLD Fc fusion protein (hCTLD-Fc) (human, UniProt Q86T13 31-172); test: phage enzyme immunoassay (phage ELISA) on hCTLD-Fc
T3 construct: also called human CTLD-Fc; wtCTLD-Fc; not shown: hinge and CH2-CH3 domain of human IgG1, encoded 3' of the cloning site of the modified pCEP4 vector
T3 sequence: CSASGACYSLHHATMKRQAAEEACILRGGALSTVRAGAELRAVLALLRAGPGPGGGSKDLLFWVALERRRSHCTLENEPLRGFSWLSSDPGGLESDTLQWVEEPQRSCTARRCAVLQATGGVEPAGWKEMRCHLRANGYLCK
Experimental: as §2
as §3, with “DNA of the final scFv clones was sequenced and classified as four scFv clones identified having different complementarity determining region sequences.” left out

[5] = molecular target: T3, recombinant human clec14a CTLD Fc …; test: ELISA, coated hCTLD-Fc (25 nM), 67 nM IgG
Experimental: as §1

B1: clec14a-CTLD IgG clone 1 (antibody, V domains shown)
VH: EVQLLESGGGLVQPGGSLRLSCAASGFTFSGYDMSWVRQAPGKGLEWVSGIYPDGGNTYYADSVKGRFTISRDNSKNTLYLQMNSLRAEDTAVYYCARGATWWVLGPFDYWGQGTLVTVSS
VL: QSVLTQPPSASGTPGQRVTISCTGSSSNIGNNSVTWYQQLPGTAPKLLIYADSHRPSGVPDRFSGSKSGTSASLAISGLRSEDEADYYCGAWDDSLSGYVFGGGTKLTVL
notes: scFv converted to IgG; Lambda light chain, detected with anti-human lambda antibody
binding result [1]: binds | binding result [2]: binds

B2: scFv clone 3 (phage-displayed) (scFv, V domains shown)
VH: EVQLLESGGGLVQPGGSLRLSCAASGFTFSDYYMSWVRQAPGKGLEWVSLISYDGGSTYYADSVKGRFTISRDNSKNTLYLQMNSLRAEDTAVYYCARSNDWFDYWGQGTLVTVSS
VL: QSVLTQPPSASGTPGQRVTISCSGSSSNIGSNNVYWYQQLPGTAPKLLIYYDSQRPSGVPDRFSGSKSGTSASLAISGLRSEDEADYYCGAWDDSLSAYVFGGGTKLTVL
binding result [3]: binds | binding result [4]: binds

B3: clec14a-CTLD IgG clone 3 (antibody, V domains shown)
VH: EVQLLESGGGLVQPGGSLRLSCAASGFTFSDYYMSWVRQAPGKGLEWVSLISYDGGSTYYADSVKGRFTISRDNSKNTLYLQMNSLRAEDTAVYYCARSNDWFDYWGQGTLVTVSS
VL: QSVLTQPPSASGTPGQRVTISCSGSSSNIGSNNVYWYQQLPGTAPKLLIYYDSQRPSGVPDRFSGSKSGTSASLAISGLRSEDEADYYCGAWDDSLSAYVFGGGTKLTVL
notes: Lambda light chain
binding result [1]: binds | binding result [5]: binds

B4: clec14a-CTLD IgG clone 2 (antibody, V domains shown)
VH: EVQLLESGGGLVQPGGSLRLSCAASGFTFSSYDMSWVRQAPGKGLEWVSVISPDSSSTYYADSVKGRFTISRDNSKNTLHLQMNSLRAEDTAVYYCARHTGWQSRPHTYYDYGMDVWGQGTLVTVSS
VL: QSVLTQPPSASGTPGQRVTISCSGSSSNIGNNAVTWYQQLPGTAPKLLIYSDNHRPSGVPDRFSGSKSGTSASLAISGLRSEDEADYYCGTWDASLSGYVFGGGTKLTVL
notes: Lambda light chain
binding result [1]: binds | binding result [2]: binds

B5: scFv clone 2 (phage-displayed) (scFv, V domains shown)
VH: EVQLLESGGGLVQPGGSLRLSCAASGFTFSSYDMSWVRQAPGKGLEWVSVISPDSSSTYYADSVKGRFTISRDNSKNTLHLQMNSLRAEDTAVYYCARHTGWQSRPHTYYDYGMDVWGQGTLVTVSS
VL: QSVLTQPPSASGTPGQRVTISCSGSSSNIGNNAVTWYQQLPGTAPKLLIYSDNHRPSGVPDRFSGSKSGTSASLAISGLRSEDEADYYCGTWDASLSGYVFGGGTKLTVL
binding result [3]: binds

B6: scFv clone 1 (phage-displayed) (scFv, V domains shown)
VH: EVQLLESGGGLVQPGGSLRLSCAASGFTFSGYDMSWVRQAPGKGLEWVSGIYPDGGNTYYADSVKGRFTISRDNSKNTLYLQMNSLRAEDTAVYYCARGATWWVLGPFDYWGQGTLVTVSS
VL: QSVLTQPPSASGTPGQRVTISCTGSSSNIGNNSVTWYQQLPGTAPKLLIYADSHRPSGVPDRFSGSKSGTSASLAISGLRSEDEADYYCGAWDDSLSGYVFGGGTKLTVL
binding result [3]: binds
